Experimental findings from patent publication US20250388669A1 (published 2025) are described below.

The EC50 is the concentration needed to bring the measured effect to its halfway point. A low value points to a more potent agent.

The target in one assay is PD-1 (binding assay) (UniProt Q15116 25-167, limits assumed). Briefly: FCM or ELISA, graded. On the technique in general: In an ELISA, binding on a coated surface is turned into a signal by an enzyme label.
For the next assay, the target named is T1, PD-1 (human, UniProt Q15116 25-167, limits assumed).
T1 construct: The reporter assay used Jurkat T cells expressing human PD-1
Briefly: FCM or ELISA.

Another assay has as its target CD3 (human). As to the kind of experiment: CD3 binding, as described in Example 2 (ELISA or FCM).

Sequence of PD-1 (binding assay) (Q15116 25-167 limits assumed): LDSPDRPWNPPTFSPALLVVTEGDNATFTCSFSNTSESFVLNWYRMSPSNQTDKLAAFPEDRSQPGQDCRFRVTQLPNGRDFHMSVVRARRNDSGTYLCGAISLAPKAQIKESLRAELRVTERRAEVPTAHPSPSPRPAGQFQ
T1 sequence (Q15116 25-167 limits assumed): as above
Sequence of CD3 (human) (chain, as listed by the source): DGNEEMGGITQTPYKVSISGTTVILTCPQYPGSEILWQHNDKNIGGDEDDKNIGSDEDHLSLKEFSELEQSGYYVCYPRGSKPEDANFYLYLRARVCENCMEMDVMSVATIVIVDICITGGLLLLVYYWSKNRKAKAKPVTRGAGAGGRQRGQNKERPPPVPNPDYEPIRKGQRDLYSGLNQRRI

B1: Ly2281 (bispecific antibody)
heavy 1: QVTLKESGPALVKPTQTLTLTCTFSGFSLSTSGTCVSWIRQPPGKALEWLATICWEDSKGYNPSLKSRLTISKDTSKNQAVLTMTNMDPVDTATYYCARREDSGYFWFPYWGQGTLVTVSSASTKGPSVFPLAPSSKSTSGGTAALGCLVKDYFPEPVTVSWNSGALTSGVHTFPAVLQSSGLYSLSSVVTVPSSSLGTQTYICNVNHKPSNTKVDKKVEPKSCGGGGSGGGGSGGGGSGGGGSQVQLVQSGAEVKKPGASVKVSCKASGYTFAGFEMHWVRQAPGQGLEWMGAIDPKTGGTDYNQKFKDRVTMTRDTSISTAYMELSRLRSDDTAVYYCARDLGYFDVWGQGTLVTVSSGGGGSDKTHTCPPCPAPEAAGPSVFLFPPKPKDTLMISRTPEVTCVVVDVSHEDPEVKFNWYVDGVEVHNAKTKPREEQYNSTYRVVSVLTVLHQDWLNGKEYKCKVSNKALPAPIEKTISKAKGQPREPQVYTLPPSREEMTKNQVSLWCLVKGFYPSDIAVEWESNGQPENNYKTTPPVLDSDGSFFLYSKLTVDKSRWQQGNVFSCSVMHEALHNHYTQKSLSLSPG
heavy 2: QVTLKESGPALVKPTQTLTLTCTFSGFSLSTSGTCVSWIRQPPGKALEWLATICWEDSKGYNPSLKSRLTISKDTSKNQAVLTMTNMDPVDTATYYCARREDSGYFWFPYWGQGTLVTVSSASTKGPSVFPLAPSSKSTSGGTAALGCLVKDYFPEPVTVSWNSGALTSGVHTFPAVLQSSGLYSLSSVVTVPSSSLGTQTYICNVNHKPSNTKVDKKVEPKSCGGGGSGGGGSGGGGSGGGGSDIQMTQSPSSLSASVGDRVTITCRASQDIRSNLNWYQQKPGGAVKLLIYYTSRLHSGVPSRFSGSGSGTDYTLTISSLQPEDFATYFCQQSEKLPRTFGGGTKVEIRGGGGSDKTHTCPPCPAPEAAGPSVFLFPPKPKDTLMISRTPEVTCVVVDVSHEDPEVKFNWYVDGVEVHNAKTKPREEQYNSTYRVVSVLTVLHQDWLNGKEYKCKVSNKALPAPIEKTISKAKGQPREPQVYTLPPSREEMTKNQVSLSCAVKGFYPSDIAVEWESNGQPENNYKTTPPVLDSDGSFFLVSKLTVDKSRWQQGNVFSCSVMHEALHNRFTQKSLSLSPG
light: NIQMTQSPSSLSASVGDRVTITCKAGQNVNNYLAWYQQKPGKAPKVLIFNANSLQTGVPSRFSGSGSGTDFTLTISSLQPEDFATYYCQQYNSWPTFGGGTKVEIKRTVAAPSVFIFPPSDEQLKSGTASVVCLLNNFYPREAKVQWKVDNALQSGNSQESVTEQDSKDSTYSLSSTLTLSKADYEKHKVYACEVTHQGLSSPVTKSFNRGEC
notes: PD-1 Fabs (Ly516) x central CD137 Fv
Take B1: the binding result with PD-1 (binding assay) was “binds”.

B2: Ly2281 (bispecific antibody)
chain 1: B1 heavy 1
chain 2: B1 heavy 2
light: B1 light
notes: PD-1/CD137: two PD-1 Fabs, central CD137 Fv
B2: the binding result in the assay with PD-1 is “binds”.

B3: Ly2280 (bispecific antibody)
heavy 1: not shown
heavy 2: QVTLKESGPALVKPTQTLTLTCTFSGFSLSTSGTCVSWIRQPPGKALEWLATICWEDSKGYNPSLKSRLTISKDTSKNQAVLTMTNMDPVDTATYYCARREDSGYFWFPYWGQGTLVTVSSASTKGPSVFPLAPSSKSTSGGTAALGCLVKDYFPEPVTVSWNSGALTSGVHTFPAVLQSSGLYSLSSVVTVPSSSLGTQTYICNVNHKPSNTKVDKKVEPKSCGGGGSGGGGSGGGGSGGGGSDIQMTQSPSSVSASVGDRVTITCRASQGIYSWLAWYQQKPGKAPNLLIYTASTLQSGVPSRFSGSGSGTDFTLTISSLQPEDFATYYCQQANIFPLTFGGGTKVEIKGGGGSDKTHTCPPCPAPEAAGPSVFLFPPKPKDTLMISRTPEVTCVVVDVSHEDPEVKFNWYVDGVEVHNAKTKPREEQYNSTYRVVSVLTVLHQDWLNGKEYKCKVSNKALPAPIEKTISKAKGQPREPQVYTLPPSREEMTKNQVSLSCAVKGFYPSDIAVEWESNGQPENNYKTTPPVLDSDGSFFLVSKLTVDKSRWQQGNVFSCSVMHEALHNRFTQKSLSLSPG
light: B1 light
notes: PD-1 Fabs (Ly516) x central CD40 Fv (TM383)
As to B3, the binding result with PD-1 (binding assay) is given as “binds”.

B4: Ly2396 (bispecific antibody, human IgG1, kappa)
chain 1: QVTLKESGPALVKPTQTLTLTCTFSGFSLSTSGTCVSWIRQPPGKALEWLATICWEDSKGYNPSLKSRLTISKDTSKNQAVLTMTNMDPVDTATYYCARREDSGYFWFPYWGQGTLVTVSSASTKGPSVFPLAPSSKSTSGGTAALGCLVKDYFPEPVTVSWNSGALTSGVHTFPAVLQSSGLYSLSSVVTVPSSSLGTQTYICNVNHKPSNTKVDKKVEPKSCDKTHTCPPCPAPEAAGPSVFLFPPKPKDTLMISRTPEVTCVVVDVSHEDPEVKFNWYVDGVEVHNAKTKPREEQYNSTYRVVSVLTVLHQDWLNGKEYKCKVSNKALPAPIEKTISKAKGQPREPQVYTLPPSREEMTKNQVSLWCLVKGFYPSDIAVEWESNGQPENNYKTTPPVLDSDGSFFLYSKLTVDKSRWQQGNVFSCSVMHEALHNHYTQKSLSLSPGGGGGSGGGGSGGGGSGGGGSQVQLVQSGAEVKKPGASVKVSCKASGYTFAGFEMHWVRQAPGQGLEWMGAIDPKTGGTDYNQKFKDRVTMTRDTSISTAYMELSRLRSDDTAVYYCARDLGYFDVWGQGTLVTVSS
chain 2: QVTLKESGPALVKPTQTLTLTCTFSGFSLSTSGTCVSWIRQPPGKALEWLATICWEDSKGYNPSLKSRLTISKDTSKNQAVLTMTNMDPVDTATYYCARREDSGYFWFPYWGQGTLVTVSSASTKGPSVFPLAPSSKSTSGGTAALGCLVKDYFPEPVTVSWNSGALTSGVHTFPAVLQSSGLYSLSSVVTVPSSSLGTQTYICNVNHKPSNTKVDKKVEPKSCDKTHTCPPCPAPEAAGPSVFLFPPKPKDTLMISRTPEVTCVVVDVSHEDPEVKFNWYVDGVEVHNAKTKPREEQYNSTYRVVSVLTVLHQDWLNGKEYKCKVSNKALPAPIEKTISKAKGQPREPQVYTLPPSREEMTKNQVSLSCAVKGFYPSDIAVEWESNGQPENNYKTTPPVLDSDGSFFLVSKLTVDKSRWQQGNVFSCSVMHEALHNRFTQKSLSLSPGGGGGSGGGGSGGGGSGGGGSDIQMTQSPSSLSASVGDRVTITCRASQDIRSNLNWYQQKPGGAVKLLIYYTSRLHSGVPSRFSGSGSGTDYTLTISSLQPEDFATYFCQQSEKLPRTFGGGTKVEIR
light: B1 light
notes: PD-1/CD137: two PD-1 Fabs, terminal CD137 Fv
Turning to B4, the binding result with PD-1 is on record as “binds”.

B5: Ly2278 (bispecific antibody)
chain 1: QVQLQQSGAELVRPGSSVKISCKASGYAFSSYWMNWVKQRPGQGLEWIGQIWPGDGDTNYNGKFKGKATLTADESSSTAYMQLSSLASEDSAVYFCARRETTTVGRYYYAMDYWGQGTTVTVSSASTKGPSVFPLAPSSKSTSGGTAALGCLVKDYFPEPVTVSWNSGALTSGVHTFPAVLQSSGLYSLSSVVTVPSSSLGTQTYICNVNHKPSNTKVDKKVEPKSCGGGGSGGGGSGGGGSGGGGSEVQLVESGGGLVQPGGSLRLSCAASGFTFSTYAMNWVRQAPGKGLEWVGRIRSKYNNYATYYADSVKGRFTISRDDSKNSLYLQMNSLKTEDTAVYYCVRHGNFGNSYVSWFAYWGQGTLVTVSSGGGGSDKTHTCPPCPAPEAAGPSVFLFPPKPKDTLMISRTPEVTCVVVDVSHEDPEVKFNWYVDGVEVHNAKTKPREEQYNSTYRVVSVLTVLHQDWLNGKEYKCKVSNKALPAPIEKTISKAKGQPREPQVYTLPPSREEMTKNQVSLWCLVKGFYPSDIAVEWESNGQPENNYKTTPPVLDSDGSFFLYSKLTVDKSRWQQGNVFSCSVMHEALHNHYTQKSLSLSPG
chain 2: QVQLQQSGAELVRPGSSVKISCKASGYAFSSYWMNWVKQRPGQGLEWIGQIWPGDGDTNYNGKFKGKATLTADESSSTAYMQLSSLASEDSAVYFCARRETTTVGRYYYAMDYWGQGTTVTVSSASTKGPSVFPLAPSSKSTSGGTAALGCLVKDYFPEPVTVSWNSGALTSGVHTFPAVLQSSGLYSLSSVVTVPSSSLGTQTYICNVNHKPSNTKVDKKVEPKSCGGGGSGGGGSGGGGSGGGGSQAVVTQEPSLTVSPGGTVTLTCRSSTGAVTTSNYANWVQQKPGQAPRGLIGGTNKRAPWTPARFSGSLLGGKAALTITGAQAEDEADYYCALWYSNLWVFGGGTKLTVLGGGGSDKTHTCPPCPAPEAAGPSVFLFPPKPKDTLMISRTPEVTCVVVDVSHEDPEVKFNWYVDGVEVHNAKTKPREEQYNSTYRVVSVLTVLHQDWLNGKEYKCKVSNKALPAPIEKTISKAKGQPREPQVYTLPPSREEMTKNQVSLSCAVKGFYPSDIAVEWESNGQPENNYKTTPPVLDSDGSFFLVSKLTVDKSRWQQGNVFSCSVMHEALHNRFTQKSLSLSPG
light: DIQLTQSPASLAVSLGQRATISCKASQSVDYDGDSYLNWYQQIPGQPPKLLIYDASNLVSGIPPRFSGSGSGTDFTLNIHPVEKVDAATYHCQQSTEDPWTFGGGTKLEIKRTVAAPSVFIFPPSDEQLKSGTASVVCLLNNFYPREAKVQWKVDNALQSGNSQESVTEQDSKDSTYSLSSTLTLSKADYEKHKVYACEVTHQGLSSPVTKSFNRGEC
notes: CD19 Fabs, central CD3 Fv
With B5, a half-maximal effect in the assay with CD3 (EC50) was put at 1.46 µg/mL.
